Assay: label from the status in PepcDB records

Sequence | protein production
MSTQSEAILEENLLKQLVSLGYEKVLIRDEAELLANLKAQLERHNKITLDDMEFSRILNHLNKGNVFEKAKILRDKFALTREDGTTKYIEFLDTERWCQNLFQVTHQVTIEGSYKNRYDVTILINGLPLVQIELKRRGLELKEAFNQINRYQRHSYGANSALFHYVQIFVISNGVNTKYYANNRNQSFKQTFFWADKENKNITNLNEFTDLFLEPCHISKMICKYVVLAEATKTLMILRPYQYHATEAIIDRVVNTNKNGYIWHTTGSGKTLTSFKTAQILMKLPNVHKVVFVVDRKDLDYQTTKEFNSFSQGSVDGTDNTASLVRQFSDDTRLIVTTIQKLNTAINKQRYLEKMKNLRDKRIVFIFDECHRSQFGDTHRNITKFFNNYQMIGFTGTPIFADNATGNKFGKRTTKELFDECLHKYVITDAIADENVLKFSVEYIGRYKEREGSQNNLDIEVEDIDTKELLESPERLEKIVDYIIAHHDRKTHSKEFTAMMCVSSVDVLTKYYELFRSKQHGLKIATIFSYSTNEDDKDANGLDSLEESDGAHVDEEHINMHSRDKLEEYIAHYNTMFGTNFTTKDSQSFYNYYNDISKRVKNQEVDILLVVNMFLTGFDSKTLNTLYVDKNLKYHGLIQAFSRTNRILNEKKSQGNILCFRNLKKATDAAIALFSNKNAKEIILMKSYEEYVEKFIEALKKLKEIAPTIDSVDSLYDEESKLEFIKAFRELMRIQNILGSFADFSFADLGIAEQEFEEYKSKYLDIHDTIKREGKEKVSILEDVDFELELIHKDEINVTYILKLLAQLKDASEQEHQTQRQNIINIINGNAQLRSKRELIERFIDAHLMSLEDIDMVDGAFEKFWNEEKLKAFDALCEEENLNKEKVKKVVDTYLYDERPPLSDDIANTLNIKPKLLERRKVVPRVLDKIMTFVDRFYT | failed
METNQLRGIFYMMAAMLLISVQEALAKYLGQALPVAQVVWARYLGHLVLMIILLWPKNGMSLLKTNKLFIQIARSLILLIDTVLFFFGLTMLGLAEATAIFFTVPLLVLLLSIPLLGERVSASSIVAVIVGFIGTLIIVRPGINGLGSSDLGIGALFIFGAACCTAIYNVTTRKLSASEPIPVTLFYTAIVGAVVTSLFLPFIWETPTSLEVWAALIFIGLFGGSAHSLIIISHKYAAATTVAPFIYSQIFWALGLGWLMFGELPDFYVYFGGAIVISSGLYLFYHGRTRVNTASQQLGKDPLLVNAAKIKALQNRP | failed
MRQSTLHTRLSTGPGGSMRSSIEIFNIRTRKMRVVWQTPELFEAPNWSPDGKYLLLNSEGLLYRLSLAGDPSPEKVDTGFATICNNDHGISPDGALYAISDKVEFGKSAIYLLPSTGGTPRLMTKNLPSYWHGWSPDGKSFTYCGIRDQVFDIYSMDIDSGVETRLTHGEGRNDGPDYSPDGRWIYFNSSRTGQMQIWRVRVDGSSVERITDSAYGDWFPHPSPSGDKVVFVSYDADVFDHPRDLDVRVQLMDMDGGNVETLFDLFGGQGTMNSPNWSPDGDEFAYVRYFPVE | not failed
MFRKLAAECFGTFWLVFGGCGSAVLAAGFPELGIGFAGVALAFGLTVLTMAFAVGHISGGHFNPAVTIGLWAGGRFPAKEVVGYVIAQVVGGIVAAALLYLIASGKTGFDAAASGFASNGYGEHSPGGYSMLSALVVELVLSAGFLLVIHGATDKFAPAGFAPIAIGLALTLIHLISIPVTNTSVNPARSTAVAIFQGGWALEQLWFFWVVPIVGGIIGGLIYRTLLEKRD | not failed
MDTFNYQNFYNQEYYLNMVPGIPYDREAHGGHWLRFFNTVADRLINYVSPTSVLDVGCAKGFLLEAFYNRGILVHGFDYSEYAISCVREDLKPFAFVASAANSNAFLEKQDSYDLITCIEVVEHMPRDEAWLAIKNMCQSAKSIFFSSTSDDFAEPTHLTVLPRIYWLETFLSFGFVPDYKFDIHDLIPHGILLRKIDDNLTAFKMLIEVNETNLEVIKQQKIDIEKLNSEKVNLENKLQQTQTELERSHSQLQQTQTELERSHSQLQQTQTELERSHSQLQQTQTELERSHSQLQQTQTELERSHSQLHQTQTELERSQSQLQQTQTELERSQSQLQQIQMALTLPQSQLYQMQTELEHWKNLVDWMEGSRFWKLRALCLSLKKKIINFPIIKLDFGSLPVFRKNNYPIFVKRTGKLIKNQIMSFRTQNDFADEILAGVLQSFAESPEYSQWIKDYEAKNDELKEQRINAASFPYQPVLSIILPVYKLPLTVLQETINSVIQQTYSNWELCIAFADIDNYQTIDYLKTLSLQEKRIKLKVMAENKGISGNSNVSLNMASGEFVALLDHDDLLAPFAFYEVISELNKQPDLDFIYSDKDCISANSMVRSRLLLKPEWSPEILYSANYLTHLCIARRTLLEKIGGFRPETDGAQDWDLFLRITENTSRIARINSVLYHWRIIQGSTSLGIDSKPYALEGQLRSIQDHLTRTKLPATVSPHPESGFRLEWQASSAEVSIYIDGDVSWDSLSACIHAVSEFADPKLHKATIVLAEHTYTSKATERENLITAVNLPIDWLPIKEGDSKLATLANTIKQDKTDVVVFVSGLVKKFTEGWIQELSGWVLNHPDIGFVSSLVLTDNNLVVEAGLVVDQYNNGSPLMRGNFLYSWDIFGGALWYRNCSASSPWSIAFSYKNYLEGGGLPSNSPSLSHSMIKLCQAIRVNNKRGLVNPHARAFLQDLPKNDIPEFDDSLGNDPYFHPAFSSVVPLKLRVKNGKKN | failed
MVEGVHCVPDSVELMPKQHDIPRARLRIVVHEGRNHEVRELVKNAGLEVHSLKRVRIGGFRLPSDLGLGKHVELKQSELKALGWKN | not failed
SGNTTSERVSGERHGAKAARAEGGGHGPGKEHKIMVGSTDDPSVFSLPDSKLPGDKEFVPWQQDLDDSVKPTQQARPTVIRWSEGGKEVFISGSFNNWSTKIPLIKSHNDFVAILDLPEGEHQYKFFVDGQWVHDPSEPVVTSQLGTINNLIHVKKSDFEVFDALKLDSMESSETSCRV | failed
MTLFAEYNSPYLFAIAFVFFIGVLEMISLIFGHFLSGALDAHLDHYDALSSGPAGQALHYLNIGRVPALVVLCLLAGYFGLFGILIQHGGIMLWQAPLSNLLLVPLSIVLSVFAVHYSGKILAPWLPRDESSALREEEFIGGMAIITGHAAVAGTPCEGKFTDKFGQIHYLLLEPEKGKEFKKGDKVLIICRLSATRYLAERTFYV | failed
MTFSKELREASRPIIDDIYNDGFIQDLLAGKLSNQAVRQYLRADASYLKEFTNIYAMLIPKMSSMEDVKFLVEQIEFMLEGEVEAHEVLADFINEPYEEIVKEKVWPPSGDHYIKHMYFNAFARENAAFTIAAMAPCPYVYAVIGKRAMEDPKLNKESVTSKWFQFYSTEMDELVDVFDQLMDRLTKHCSETEKKEIKENFLQSTIHERHFFNMAYINEKWEYGGNNNE | not failed
TKTTTQGAKSGVFDTVDEAVQAAVIAQNCYKEKSLEERRNVVKAIREALYPEIETIATRAVAETGMGNVTDKILKNTLAIEKTPGVEDLYTEVATGDNGMTLYELSPYGVIGAVAPSTNPTETLICNSIGMLAAGNAVFYSPHPGAKNISLWLIEKLNTIVRDSCGIDNLIVTVAKPSIQAAQEMMNHPKVPLLVITGGPGVVLQAMQSGKKVIGAGAGNPPSIVDETANIEKAAADIVDGASFDHNILCIAE | not failed
MPEQDVPRVRLFGAHELKISDIFDEKKDIYYVPIFQGKDDVNKLHQSAYTGKNTKCAILDSGVLTDHPYLKDRMDAIEDFTGHGFQDREGHGTAVALNLAMTAPDASILIGKVYENDDVPLSEYINRIARGVNWAIDSGARIINLSVGMEKRKEDISNYPGCSEAVKNVCKAITQAIENGISVLVAAGANFPADCHESIIVVGLPGNPVYPKDVHPTVYSPFSPILVPTFLFEGYAHLKMGMYEQALALFKQAADLHPEDHQLWKYQALCRYGLKKYNDAILSFDKALAIKQSDVKTWYLKGITLLALTQNDKAIECFDEVLKLVNNAGLTGMKLTEFSNSISDDWYNMGVYYEQASRYDEAANCYDKAIRIDPLNAKAWNNRGVILAIEEKYEDSIKYFEVATELKPSMVDAWFNKGLALSRIGKYEESIEFFDKAIAIDPASNKALKERIRVSGKLKSKEE | failed
MNDFKGWETRSYLFLALMVGVQLVAFAINPSNWITLVGGLAGIICVNLIAQGKVSNYIFGLISAVIIGYFGLVTRVYAEVLLQSFYIIMDITGLYAWLRASEDGSGQVTEVKVLKGIQWLYAFFTWLLIGVAAYILLGFVNDAQQTLDAITFSVSATGMLLMIKRYQSQFVFWLLGNIFSILLWFRAGTHAGGDYAIFVMYCMYTFNSIFGMFNWLKIKNKMEKNR | failed
MSLDMKEHPDAEVQKNQVLTLEDWKEKWVTRHISFHQEQGHQLLKKHLDTFLKGQSGLRVFFPLCGKAIEMKWFADRGHTVVGVEISEIGIREFFAEQNLSYTEEPLAEIAGAKVFKSSSGSISLYCCSIFDLPRANIGKFDRIWDRGALVAINPGDHDRYADIILSLLRKEFQYLVAVLSYDPTKHAGPPFYVPSAELKRLFGTKCSMQCLEEVDALEERHKAWGLDYLFEKLYLLTEK | not failed
MITSRSTGELVIPVSRRINNKDGNFGGVFLVTLRVQYFSRFYADFRMDEQGVIVLADQNGTIMVRHPFDTNMIGRNIAKGDIFSKYLPHASRGVHMVVAITDKVERMYGYERLNRYPLVVLAGKSKRAILGSWYESLYGSLIMLCLILPIPVLFATLISRQIKTTLKVEDELRLAYAAVEAIAMQDSLTGLANRRQLDVVLPAEIKRAKRTSQPLGVIMVDIDYFKRYNDYYGHPAGDLCIKAIANVLKNHTRRAGNLAARYGGEELTVLLPSCDQAAVLAAAERIVESIRGLQIAHDDSPEGYLTVSVGAYSYSAFNKEVDASGLLKCADDALYAAKQAGRNRARLSA | failed
MIKKIHRWLPLLVLIGLLVLFFSLHLDKYLSFNALRENHALLIAWTQTHYFIAPLIFIVFYTTAVAISIPGAVLLTLTGGFLFGVFWGVLFVVISATLGATILFFAVRTALGDWFAQKASGWIERMRQGFQHNAFSYLVTLRLIPLFPFWAVNIVPALLNIRAKTFITATFIGIIPGTTVYVMVGNGLSQIFAANQTPNLGIIFELQILGPLLALAVLSLMPVLYQFSTRKHQNHHSFSDISRVINCDLAIIGGGAGGLSLASGCSQLGLKVVLVESGKMGGDCLNYGCIPSKSLLAAAKTFYYAKHATHFGVHTEAIKINFQQVMQHVHQIIDNISEHDSVQRFESLGVQVIKQVGKFLNPDTLQAGDSIIKAKRFVVATGSSPFIPPIPGLDAVSYFTNETIFDLKEQPEHLIVIGGGPIGCELAQAFAMLGSKVTLLEGLNLLPKDDPDCVAVLRTQMKSMSIVIHEQIEITQINSHPDTGISVCFEFQNTQFTITASHLLIATGRRANVKPLDLEKAGVKLTSKGVEVNKYLQTSNKKIYALGDVTGLYQFTHMASYQASIVLRNIVFKLPSKVDYRAIPWVTYTDPELAHVGIGVSDALKHPDAQIIEWPFVDNDRAQTERSLNGKIKIITDKKARILGVTIVGPHAGELILPWVMAIREKKNLRSFTDVIVPYPTLSEISKRVAGSFYAPKLFSNKTRMLVRWLQKIG | failed
MHCRIRNTISCSNYIFSAVWNFLISVFINKTNFNNSVYCRIFKVSIGLRKSISSTTRTRWVPVVFICSRSTNRWTGARSVNPIRNLEHHHHHH | failed
MQLSGRSSSGLGRAGQLLRRPEVLAFLPALSLLAYWLGGERALVFVALGLPLFYATVGAFRPAAPSVTPDGLALRPQVIASLDRVLQDRESTGRTTACLVLQFDGMDKLLDRHGRATQSEVLARCCDRLCSTLREGDTVARLEGGGLAVALHPVRRLDLQSVVLLAGRLQTAIAAPISVEGTRIHVTCSIGFCLAERTPAPTGRALLDAAQMAADEASRNGPGAVRAYALGMSRNRADRDADRGLLETALDTGQFTGWFQPQIRTEDGAIGGFEVLSRWQHPERGLLLPQDFLPAIERAGLSERLGEVMLFQALTALRHWDRAGLCVPCVAVNFSATDLRNPRLVDRLKWELDRFELTPARLSVEILETVVAEGASDVVVHNIAGLSACGFGVDLDDFGTGHASITTIRRFALRRLKIDRSFVTRADSDAAQRTMLAAIISMARQLGLETLAEGVETPGELATLTALGCGYLQGYAIARPMPLSDATAWLENRRVRLPLAARCATPGS | failed

Reference: a protein production outcome set (Wang et al. 2014)
